These binders were tested against T1, Aβ1-42 protofibril (human) (assay: SPR (Biacore T200), protofibril on CM5 chip, antibody as analyte).
T1 construct: also called amyloid protofibril
T1 sequence (peptide, as listed by the source): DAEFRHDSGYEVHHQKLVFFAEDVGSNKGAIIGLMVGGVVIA

Binder | Kd [nM] | koff [s⁻¹] | kon [M⁻¹ s⁻¹]
7C8 H2K2 hIgG1 (antibody, V domains shown, also called h7C8 H2 + h7C8 K2) VH: QVTLKESGPALVKPTQTLTLTCTFSGFSLSTSGMGVSWIRQPPGKALEWLAHIYWDDDKRYNPSLKSRLTITKDTSKNQVVLTMTNMDPVDTATYYCARYGKGFAYWGQGTLVTVSS VL: DIVMTQSPLSLPVTPGEPASISCRSSQSIVHSNGNTYLDWYLQKPGQSPQLLIYKVSNRFSGVPDRFSGSGSGTDFTLKISRVEAEDVGVYYCFQGSHVPLTFGQGTKLEIK | 2.76 | 0.00293 | 1.06e+06
7C8 H6K2 hIgG1 (antibody, V domains shown, also called h7C8 H6K2 hIgG1; h7C8 H6K2) VH: QVQLQESGPGLVKPSETLSLTCTFSGFSISTSGMGVSWIRQPPGKGLEWIGHIYWDDDKRYNPSLKSRVTISKDTSKNQVSLKLSSVTAADTAVYYCARYGKGFAYWGQGTLVTVSS VL: DIVMTQSPLSLPVTPGEPASISCRSSQSIVHSNGNTYLDWYLQKPGQSPQLLIYKVSNRFSGVPDRFSGSGSGTDFTLKISRVEAEDVGVYYCFQGSHVPLTFGQGTKLEIK | 2.8 | 0.0041 | 1.46e+06
7C8 H6K1 hIgG1 (antibody, V domains shown, also called h7C8 H6 + h7C8 K1) VH: QVQLQESGPGLVKPSETLSLTCTFSGFSISTSGMGVSWIRQPPGKGLEWIGHIYWDDDKRYNPSLKSRVTISKDTSKNQVSLKLSSVTAADTAVYYCARYGKGFAYWGQGTLVTVSS VL: DVVMTQSPLSLPVTPGEPASISCRSSQSIVHSNGNTYLEWYLQKPGQSPKLLIYKVSNRFSGVPDRFSGSGSGTDFTLKISRVEAEDVGVYYCFQGSHVPLTFGQGTKLEIK | 2.63 | 0.00472 | 1.79e+06
7C8 H7K2 hIgG1 (antibody, V domains shown, also called h7C8 H7 + h7C8 K2) VH: QVQLQESGPGLVKPSETLSLTCTVSGFSISTSGMGVSWIRQPPGKGLEWIGHIYWDDDKRYNPSLKSRVTISKDTSKNQVSLKLSSVTAADTAVYYCARYGKGFAYWGQGTLVTVSS VL: DIVMTQSPLSLPVTPGEPASISCRSSQSIVHSNGNTYLDWYLQKPGQSPQLLIYKVSNRFSGVPDRFSGSGSGTDFTLKISRVEAEDVGVYYCFQGSHVPLTFGQGTKLEIK | 2.33 | 0.00415 | 1.78e+06
7C8 H5K2 hIgG1 (antibody, V domains shown, also called h7C8 H5 + h7C8 K2) VH: QVQLQESGPGLVKPSETLSLTCTFSGFSLSTSGMGVSWIRQPPGKGLEWIAHIYWDDDKRYNPSLKSRVTISKDTSKNQVSLKLSSVTAADTAVYYCARYGKGFAYWGQGTLVTVSS VL: DIVMTQSPLSLPVTPGEPASISCRSSQSIVHSNGNTYLDWYLQKPGQSPQLLIYKVSNRFSGVPDRFSGSGSGTDFTLKISRVEAEDVGVYYCFQGSHVPLTFGQGTKLEIK | 2.95 | 0.00395 | 1.34e+06
7C8 H4K2 hIgG1 (antibody, V domains shown, also called h7C8 H4 + h7C8 K2) VH: QVQLQESGPGLVKPSETLSLTCTFSGFSLSTSGMGVSWIRQPPGKGLEWLAHIYWDDDKRYNPSLKSRVTISKDTSRNQVSLKLSSVTAADTAVYYCARYGKGFAYWGQGTLVTVSS VL: DIVMTQSPLSLPVTPGEPASISCRSSQSIVHSNGNTYLDWYLQKPGQSPQLLIYKVSNRFSGVPDRFSGSGSGTDFTLKISRVEAEDVGVYYCFQGSHVPLTFGQGTKLEIK | 3.08 | 0.0037 | 1.2e+06
7C8 H7K1 hIgG1 (antibody, V domains shown, also called h7C8 H7 + h7C8 K1) VH: QVQLQESGPGLVKPSETLSLTCTVSGFSISTSGMGVSWIRQPPGKGLEWIGHIYWDDDKRYNPSLKSRVTISKDTSKNQVSLKLSSVTAADTAVYYCARYGKGFAYWGQGTLVTVSS VL: DVVMTQSPLSLPVTPGEPASISCRSSQSIVHSNGNTYLEWYLQKPGQSPKLLIYKVSNRFSGVPDRFSGSGSGTDFTLKISRVEAEDVGVYYCFQGSHVPLTFGQGTKLEIK | 1.93 | 0.00466 | 2.42e+06
7C8 H2K1 hIgG1 (antibody, V domains shown, also called h7C8 H2 + h7C8 K1) VH: QVTLKESGPALVKPTQTLTLTCTFSGFSLSTSGMGVSWIRQPPGKALEWLAHIYWDDDKRYNPSLKSRLTITKDTSKNQVVLTMTNMDPVDTATYYCARYGKGFAYWGQGTLVTVSS VL: DVVMTQSPLSLPVTPGEPASISCRSSQSIVHSNGNTYLEWYLQKPGQSPKLLIYKVSNRFSGVPDRFSGSGSGTDFTLKISRVEAEDVGVYYCFQGSHVPLTFGQGTKLEIK | 2.74 | 0.0028 | 1.02e+06
